No end group written: not given here.
Experiments:
[1] = molecular target: low density lipoprotein receptor-related protein-1 (LRP-1), mouse (mouse) (UniProt Q91ZX7); experiment: cell-based or functional assay
[2] = molecular target: beta-F1 ATPase (ATP synthase beta subunit), mouse, on brain microvessels (mouse, UniProt P56480 47-529); experiment: cell-based or functional assay
Sequence of beta-F1 ATPase (ATP synthase beta subunit), mouse, on brain microvessels (P56480 47-529): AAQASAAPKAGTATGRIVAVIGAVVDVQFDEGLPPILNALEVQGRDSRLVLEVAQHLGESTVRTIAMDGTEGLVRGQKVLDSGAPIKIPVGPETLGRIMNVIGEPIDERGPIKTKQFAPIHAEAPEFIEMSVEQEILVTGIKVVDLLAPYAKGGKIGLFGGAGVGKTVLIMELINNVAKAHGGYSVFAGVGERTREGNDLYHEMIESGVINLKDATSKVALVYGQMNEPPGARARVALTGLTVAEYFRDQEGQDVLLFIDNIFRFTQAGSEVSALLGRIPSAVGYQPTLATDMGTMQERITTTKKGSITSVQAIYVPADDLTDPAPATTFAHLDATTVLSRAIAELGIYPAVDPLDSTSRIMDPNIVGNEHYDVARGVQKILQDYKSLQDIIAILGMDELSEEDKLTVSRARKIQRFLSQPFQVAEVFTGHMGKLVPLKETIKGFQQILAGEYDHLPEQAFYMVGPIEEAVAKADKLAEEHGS

Sequence of low density lipoprotein receptor-related protein-1 (LRP-1), mouse (mouse) (Q91ZX7 20-4545): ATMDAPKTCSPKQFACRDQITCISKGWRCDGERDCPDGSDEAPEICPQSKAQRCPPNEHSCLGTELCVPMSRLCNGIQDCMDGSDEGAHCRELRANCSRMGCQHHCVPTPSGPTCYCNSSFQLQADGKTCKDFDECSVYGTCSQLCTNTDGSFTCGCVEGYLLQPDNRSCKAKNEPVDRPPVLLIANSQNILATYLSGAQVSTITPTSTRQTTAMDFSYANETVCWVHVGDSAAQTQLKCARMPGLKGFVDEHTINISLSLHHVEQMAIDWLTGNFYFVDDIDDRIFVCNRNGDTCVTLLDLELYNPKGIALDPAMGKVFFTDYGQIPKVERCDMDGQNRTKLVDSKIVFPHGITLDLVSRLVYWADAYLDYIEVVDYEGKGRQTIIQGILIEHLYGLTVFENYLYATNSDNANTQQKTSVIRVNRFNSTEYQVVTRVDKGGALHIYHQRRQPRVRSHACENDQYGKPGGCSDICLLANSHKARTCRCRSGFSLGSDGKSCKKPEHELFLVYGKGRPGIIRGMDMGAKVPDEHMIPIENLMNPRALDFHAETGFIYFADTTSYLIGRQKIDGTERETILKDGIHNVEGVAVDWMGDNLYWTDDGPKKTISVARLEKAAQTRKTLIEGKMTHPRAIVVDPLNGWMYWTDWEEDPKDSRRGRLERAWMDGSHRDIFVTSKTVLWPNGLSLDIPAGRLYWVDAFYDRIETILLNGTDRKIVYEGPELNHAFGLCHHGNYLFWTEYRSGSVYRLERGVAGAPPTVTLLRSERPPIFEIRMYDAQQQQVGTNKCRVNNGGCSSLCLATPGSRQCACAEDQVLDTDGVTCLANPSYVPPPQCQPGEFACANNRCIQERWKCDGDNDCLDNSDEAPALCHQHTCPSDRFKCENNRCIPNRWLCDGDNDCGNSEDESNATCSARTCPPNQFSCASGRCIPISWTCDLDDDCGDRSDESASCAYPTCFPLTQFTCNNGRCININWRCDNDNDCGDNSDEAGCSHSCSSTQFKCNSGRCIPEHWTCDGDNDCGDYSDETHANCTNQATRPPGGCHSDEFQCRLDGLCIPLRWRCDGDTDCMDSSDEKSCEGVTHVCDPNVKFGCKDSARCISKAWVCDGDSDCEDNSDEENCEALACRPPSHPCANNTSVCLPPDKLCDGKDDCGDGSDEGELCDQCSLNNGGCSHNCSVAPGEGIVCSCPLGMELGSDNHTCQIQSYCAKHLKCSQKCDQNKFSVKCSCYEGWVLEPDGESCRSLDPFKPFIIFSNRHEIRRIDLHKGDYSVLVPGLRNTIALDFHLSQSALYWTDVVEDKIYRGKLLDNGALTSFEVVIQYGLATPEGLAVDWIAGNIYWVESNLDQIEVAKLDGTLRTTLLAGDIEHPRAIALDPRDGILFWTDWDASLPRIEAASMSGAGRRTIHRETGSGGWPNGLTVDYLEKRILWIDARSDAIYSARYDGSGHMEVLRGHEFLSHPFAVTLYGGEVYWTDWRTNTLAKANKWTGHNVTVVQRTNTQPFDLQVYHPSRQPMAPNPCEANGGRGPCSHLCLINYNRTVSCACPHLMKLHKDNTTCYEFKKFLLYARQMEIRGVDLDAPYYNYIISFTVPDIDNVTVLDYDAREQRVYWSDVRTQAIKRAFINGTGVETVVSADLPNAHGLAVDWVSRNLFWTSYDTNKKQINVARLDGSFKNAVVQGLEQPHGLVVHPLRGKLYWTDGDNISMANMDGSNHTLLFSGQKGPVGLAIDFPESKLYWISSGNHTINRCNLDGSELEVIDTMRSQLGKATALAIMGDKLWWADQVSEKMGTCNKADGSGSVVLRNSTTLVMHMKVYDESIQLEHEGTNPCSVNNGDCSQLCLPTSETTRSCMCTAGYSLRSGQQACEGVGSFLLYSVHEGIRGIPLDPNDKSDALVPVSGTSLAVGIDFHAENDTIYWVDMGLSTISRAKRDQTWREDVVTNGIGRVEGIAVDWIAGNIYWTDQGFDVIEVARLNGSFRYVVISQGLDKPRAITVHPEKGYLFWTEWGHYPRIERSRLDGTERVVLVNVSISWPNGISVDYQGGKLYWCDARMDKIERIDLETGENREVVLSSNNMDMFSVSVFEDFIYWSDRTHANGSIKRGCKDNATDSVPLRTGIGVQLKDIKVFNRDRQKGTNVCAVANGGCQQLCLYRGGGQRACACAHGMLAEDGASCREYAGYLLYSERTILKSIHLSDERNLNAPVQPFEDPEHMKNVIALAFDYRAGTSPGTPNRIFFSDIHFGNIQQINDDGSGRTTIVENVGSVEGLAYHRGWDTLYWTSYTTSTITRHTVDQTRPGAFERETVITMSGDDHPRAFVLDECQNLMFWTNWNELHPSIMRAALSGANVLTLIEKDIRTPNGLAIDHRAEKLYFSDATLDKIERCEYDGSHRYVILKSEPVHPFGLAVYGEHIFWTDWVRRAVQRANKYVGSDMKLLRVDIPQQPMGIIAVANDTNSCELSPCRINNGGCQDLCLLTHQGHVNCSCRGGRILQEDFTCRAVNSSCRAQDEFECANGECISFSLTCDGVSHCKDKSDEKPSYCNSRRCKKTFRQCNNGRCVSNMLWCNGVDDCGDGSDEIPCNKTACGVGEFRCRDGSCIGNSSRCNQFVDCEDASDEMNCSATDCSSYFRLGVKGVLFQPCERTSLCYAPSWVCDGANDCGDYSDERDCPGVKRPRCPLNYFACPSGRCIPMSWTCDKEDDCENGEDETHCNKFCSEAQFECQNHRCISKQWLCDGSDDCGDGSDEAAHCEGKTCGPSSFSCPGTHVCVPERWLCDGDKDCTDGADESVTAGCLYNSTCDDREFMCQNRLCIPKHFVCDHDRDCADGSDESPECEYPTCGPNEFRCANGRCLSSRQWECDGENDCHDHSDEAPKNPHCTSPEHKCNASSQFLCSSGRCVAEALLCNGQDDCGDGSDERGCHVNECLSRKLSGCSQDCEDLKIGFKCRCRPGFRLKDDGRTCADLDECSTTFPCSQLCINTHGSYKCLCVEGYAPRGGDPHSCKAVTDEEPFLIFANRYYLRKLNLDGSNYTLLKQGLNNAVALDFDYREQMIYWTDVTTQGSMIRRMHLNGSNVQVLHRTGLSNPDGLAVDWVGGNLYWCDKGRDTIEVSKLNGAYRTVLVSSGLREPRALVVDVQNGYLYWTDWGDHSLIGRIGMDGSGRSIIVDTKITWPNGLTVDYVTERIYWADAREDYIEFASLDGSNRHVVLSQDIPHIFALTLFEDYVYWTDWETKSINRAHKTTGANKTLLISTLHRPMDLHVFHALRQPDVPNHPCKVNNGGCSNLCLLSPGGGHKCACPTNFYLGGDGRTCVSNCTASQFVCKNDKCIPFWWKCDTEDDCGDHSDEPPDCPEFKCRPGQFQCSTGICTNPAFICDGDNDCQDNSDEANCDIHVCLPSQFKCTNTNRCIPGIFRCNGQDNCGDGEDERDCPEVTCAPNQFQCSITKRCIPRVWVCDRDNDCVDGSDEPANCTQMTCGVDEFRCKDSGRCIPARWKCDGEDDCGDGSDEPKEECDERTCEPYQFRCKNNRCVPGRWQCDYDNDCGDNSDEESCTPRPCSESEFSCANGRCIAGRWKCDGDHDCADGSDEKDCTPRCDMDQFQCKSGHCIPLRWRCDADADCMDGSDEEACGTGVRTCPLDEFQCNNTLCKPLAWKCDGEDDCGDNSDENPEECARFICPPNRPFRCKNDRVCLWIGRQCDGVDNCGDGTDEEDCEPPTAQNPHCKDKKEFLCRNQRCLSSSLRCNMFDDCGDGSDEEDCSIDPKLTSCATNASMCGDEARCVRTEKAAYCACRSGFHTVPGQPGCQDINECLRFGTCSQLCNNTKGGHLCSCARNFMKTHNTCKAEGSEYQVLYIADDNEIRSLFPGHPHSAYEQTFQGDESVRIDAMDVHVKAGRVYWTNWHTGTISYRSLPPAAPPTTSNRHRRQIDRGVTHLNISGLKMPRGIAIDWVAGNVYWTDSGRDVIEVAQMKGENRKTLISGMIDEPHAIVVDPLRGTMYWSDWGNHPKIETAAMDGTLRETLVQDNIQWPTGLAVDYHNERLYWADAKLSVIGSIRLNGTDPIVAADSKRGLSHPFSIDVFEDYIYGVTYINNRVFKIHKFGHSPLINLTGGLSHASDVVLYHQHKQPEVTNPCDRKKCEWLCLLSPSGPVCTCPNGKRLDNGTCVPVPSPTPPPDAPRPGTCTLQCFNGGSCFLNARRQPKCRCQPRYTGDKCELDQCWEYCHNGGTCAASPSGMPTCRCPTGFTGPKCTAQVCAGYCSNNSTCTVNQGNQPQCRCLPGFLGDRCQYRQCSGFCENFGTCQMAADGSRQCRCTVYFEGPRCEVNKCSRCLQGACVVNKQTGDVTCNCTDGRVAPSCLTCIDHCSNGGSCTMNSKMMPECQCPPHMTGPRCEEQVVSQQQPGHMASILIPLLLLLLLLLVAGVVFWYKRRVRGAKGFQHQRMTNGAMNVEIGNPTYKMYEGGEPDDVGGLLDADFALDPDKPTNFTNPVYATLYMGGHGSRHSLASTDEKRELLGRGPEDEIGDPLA

42 amino acid murine amyloid beta (Aβ42) (from UniProt P12023 672-713) (peptide)
brain efflux of icv I-Aβ42 after two iv injections of anti-LRP-1 antisense cocktail, relative to saline treated mice [1]: 0.87%

B1: PACAP27 (pituitary adenylate cyclase-activating polypeptide, 27 amino acid form) (peptide, UniProt P18509 132-158, looked up)
peptide: HSDGIFTDSYSRYRKQMAVKKYLAAVL
modifications: ends and bridges not checked; also: 131I radioiodinated, residue not given here
uptake of I-PACAP27 delivered by brain perfusion, 24 h after iv antisense cocktail against beta-F1 ATPase [2]: 4 fold

Reference: patent US20100196393A1 (ST LOUIS UNIVERSITY, published 2010)
